Assay [1] deals with T1, AnkG 38–855 (AnkG MBD-AI-c protein; MBD + partial AI-c) (rat, UniProt O70511-1 38-855).
T1 chain: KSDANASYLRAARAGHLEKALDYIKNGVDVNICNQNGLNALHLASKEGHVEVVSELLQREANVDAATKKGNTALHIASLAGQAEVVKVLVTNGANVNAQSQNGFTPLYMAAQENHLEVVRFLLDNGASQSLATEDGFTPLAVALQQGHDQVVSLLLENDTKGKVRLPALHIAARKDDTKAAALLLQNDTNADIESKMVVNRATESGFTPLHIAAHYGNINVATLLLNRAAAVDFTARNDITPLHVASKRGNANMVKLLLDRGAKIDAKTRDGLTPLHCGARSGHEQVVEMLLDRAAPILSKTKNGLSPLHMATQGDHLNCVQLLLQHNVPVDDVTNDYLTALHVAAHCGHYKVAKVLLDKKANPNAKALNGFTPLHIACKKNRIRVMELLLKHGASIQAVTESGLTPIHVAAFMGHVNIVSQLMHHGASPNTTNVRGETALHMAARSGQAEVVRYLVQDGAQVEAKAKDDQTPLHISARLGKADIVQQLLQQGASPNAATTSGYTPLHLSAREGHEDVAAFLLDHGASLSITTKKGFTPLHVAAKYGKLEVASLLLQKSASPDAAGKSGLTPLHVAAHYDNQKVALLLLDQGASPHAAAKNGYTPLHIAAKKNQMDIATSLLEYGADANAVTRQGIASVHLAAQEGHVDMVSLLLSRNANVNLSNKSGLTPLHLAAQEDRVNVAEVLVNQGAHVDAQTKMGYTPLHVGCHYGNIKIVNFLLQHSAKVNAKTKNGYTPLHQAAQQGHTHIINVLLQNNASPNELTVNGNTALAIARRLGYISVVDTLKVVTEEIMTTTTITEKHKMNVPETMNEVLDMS
Nature of the assay: ITC. In general terms: ITC needs no label: the signal is the heat of the interaction.

Assay [2] has as its target T2, AnkG 38–903 (MBD + AI-c + AI-b) (rat, UniProt O70511-1 38-903).
T2 chain: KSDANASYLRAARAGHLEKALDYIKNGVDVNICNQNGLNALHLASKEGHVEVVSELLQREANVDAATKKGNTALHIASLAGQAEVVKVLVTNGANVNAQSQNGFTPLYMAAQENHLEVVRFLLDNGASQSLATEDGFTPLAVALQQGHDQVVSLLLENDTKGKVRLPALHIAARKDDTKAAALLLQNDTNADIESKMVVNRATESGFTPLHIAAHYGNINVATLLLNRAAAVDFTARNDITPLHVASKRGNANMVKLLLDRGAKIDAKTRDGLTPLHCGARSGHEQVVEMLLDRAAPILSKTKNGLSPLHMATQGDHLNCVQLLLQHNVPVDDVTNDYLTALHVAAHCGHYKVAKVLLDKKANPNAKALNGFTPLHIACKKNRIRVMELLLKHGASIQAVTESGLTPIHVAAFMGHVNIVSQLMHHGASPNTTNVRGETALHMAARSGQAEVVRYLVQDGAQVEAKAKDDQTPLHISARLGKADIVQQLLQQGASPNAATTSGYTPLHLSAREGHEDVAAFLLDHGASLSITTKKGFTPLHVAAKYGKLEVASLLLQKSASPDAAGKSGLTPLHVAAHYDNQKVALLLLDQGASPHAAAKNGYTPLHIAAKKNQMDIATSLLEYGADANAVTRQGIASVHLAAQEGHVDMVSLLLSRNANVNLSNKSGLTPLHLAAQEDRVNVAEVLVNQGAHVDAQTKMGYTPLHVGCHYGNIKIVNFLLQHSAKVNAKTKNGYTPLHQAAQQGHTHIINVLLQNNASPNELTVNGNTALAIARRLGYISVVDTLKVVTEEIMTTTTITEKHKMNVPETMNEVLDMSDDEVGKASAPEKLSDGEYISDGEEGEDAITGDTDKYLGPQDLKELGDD
The assay can be described thus: ITC.

The target of assay [3] is T3, AnkB 28–965 (MBD + AI-c + AI-b) (human, UniProt Q01484-2 28-965).
T3 chain: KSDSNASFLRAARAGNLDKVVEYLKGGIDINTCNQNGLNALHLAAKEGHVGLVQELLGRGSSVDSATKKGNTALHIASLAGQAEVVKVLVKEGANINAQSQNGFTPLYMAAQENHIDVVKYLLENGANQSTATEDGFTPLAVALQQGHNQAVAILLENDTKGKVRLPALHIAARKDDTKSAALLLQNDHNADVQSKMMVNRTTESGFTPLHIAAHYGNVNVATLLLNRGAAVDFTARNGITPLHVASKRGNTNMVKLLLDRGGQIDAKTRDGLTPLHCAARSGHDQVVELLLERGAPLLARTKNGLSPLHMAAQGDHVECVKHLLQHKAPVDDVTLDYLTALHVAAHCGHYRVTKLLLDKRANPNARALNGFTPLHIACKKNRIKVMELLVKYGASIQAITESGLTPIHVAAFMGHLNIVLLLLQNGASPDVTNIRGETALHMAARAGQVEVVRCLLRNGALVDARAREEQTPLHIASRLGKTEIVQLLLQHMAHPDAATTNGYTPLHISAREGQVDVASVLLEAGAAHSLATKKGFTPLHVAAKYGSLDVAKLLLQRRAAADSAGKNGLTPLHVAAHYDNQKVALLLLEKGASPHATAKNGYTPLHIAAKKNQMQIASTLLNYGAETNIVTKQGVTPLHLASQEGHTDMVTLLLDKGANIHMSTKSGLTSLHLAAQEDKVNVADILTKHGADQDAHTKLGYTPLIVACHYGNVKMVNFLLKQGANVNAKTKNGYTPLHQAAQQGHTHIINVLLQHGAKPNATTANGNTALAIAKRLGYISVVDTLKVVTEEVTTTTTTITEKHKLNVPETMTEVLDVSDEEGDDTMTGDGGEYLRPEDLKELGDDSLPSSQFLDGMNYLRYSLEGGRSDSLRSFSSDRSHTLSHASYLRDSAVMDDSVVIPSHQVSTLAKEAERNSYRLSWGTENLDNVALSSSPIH
Nature of the assay: ITC.

The target of assay [4] is T4, AnkB 28–847 (MBD + partial AI-c) (human, UniProt Q01484-2 28-847).
T4 chain: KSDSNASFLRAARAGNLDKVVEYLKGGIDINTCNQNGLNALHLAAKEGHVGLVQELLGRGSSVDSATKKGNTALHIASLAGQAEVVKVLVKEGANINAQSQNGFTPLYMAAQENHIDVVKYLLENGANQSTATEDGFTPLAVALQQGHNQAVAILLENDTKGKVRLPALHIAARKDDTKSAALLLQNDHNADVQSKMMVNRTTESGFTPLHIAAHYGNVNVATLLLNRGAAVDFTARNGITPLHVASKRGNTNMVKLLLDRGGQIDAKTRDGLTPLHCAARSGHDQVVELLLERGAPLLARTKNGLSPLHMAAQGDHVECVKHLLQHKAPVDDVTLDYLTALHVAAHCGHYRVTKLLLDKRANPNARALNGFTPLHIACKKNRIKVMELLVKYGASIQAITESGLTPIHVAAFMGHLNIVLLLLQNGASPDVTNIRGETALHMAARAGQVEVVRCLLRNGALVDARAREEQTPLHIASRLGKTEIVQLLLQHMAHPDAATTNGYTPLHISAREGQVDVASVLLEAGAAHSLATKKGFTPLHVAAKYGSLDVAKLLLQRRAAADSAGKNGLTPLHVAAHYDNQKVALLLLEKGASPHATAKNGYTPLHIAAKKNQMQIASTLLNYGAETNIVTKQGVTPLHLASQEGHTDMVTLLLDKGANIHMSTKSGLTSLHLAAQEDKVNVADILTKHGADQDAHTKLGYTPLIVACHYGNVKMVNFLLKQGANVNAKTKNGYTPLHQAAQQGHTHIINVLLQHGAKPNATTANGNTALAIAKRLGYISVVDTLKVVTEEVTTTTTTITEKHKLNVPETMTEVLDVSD
Nature of the assay: ITC.

Assay [5] addresses T5, AnkB_MBD (AnkB ANK repeats only, aa 28–827) (human, UniProt Q01484-2 28-827).
T5 chain: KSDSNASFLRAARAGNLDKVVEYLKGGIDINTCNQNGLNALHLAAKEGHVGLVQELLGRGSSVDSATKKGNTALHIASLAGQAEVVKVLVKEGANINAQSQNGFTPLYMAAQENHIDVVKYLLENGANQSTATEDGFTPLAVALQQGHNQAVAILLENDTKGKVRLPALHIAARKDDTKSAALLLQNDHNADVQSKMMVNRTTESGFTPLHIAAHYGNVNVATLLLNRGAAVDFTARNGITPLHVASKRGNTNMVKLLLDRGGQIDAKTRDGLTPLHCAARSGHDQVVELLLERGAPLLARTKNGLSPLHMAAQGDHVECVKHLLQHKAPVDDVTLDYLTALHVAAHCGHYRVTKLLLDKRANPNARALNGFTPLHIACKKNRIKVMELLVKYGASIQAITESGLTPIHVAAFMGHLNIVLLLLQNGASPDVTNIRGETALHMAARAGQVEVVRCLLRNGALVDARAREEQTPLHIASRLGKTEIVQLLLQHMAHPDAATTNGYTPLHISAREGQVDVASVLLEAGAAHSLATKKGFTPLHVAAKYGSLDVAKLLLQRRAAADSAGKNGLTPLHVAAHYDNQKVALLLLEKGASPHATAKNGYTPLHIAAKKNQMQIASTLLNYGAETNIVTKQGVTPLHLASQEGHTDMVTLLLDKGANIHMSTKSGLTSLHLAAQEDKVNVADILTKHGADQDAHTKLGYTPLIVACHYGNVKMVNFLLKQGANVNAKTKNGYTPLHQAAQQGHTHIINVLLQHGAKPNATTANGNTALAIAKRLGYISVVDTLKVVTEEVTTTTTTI
Nature of the assay: ITC.

The target in assay [6] is T4, AnkB 28–847 (MBD + partial AI-c). Nature of the assay: ITC; AnkB 874-965.

The term Kd denotes the constant that tells how readily two partners part at equilibrium.

B1: Nav1.2 (aa 1035–1129) (domain or fragment)
chain: KALDEIKPLEDLNNKKDSCISNHTTIEIGKDLNYLKDGNGTTSGIGSSVEKYVVDESDYMSFINNPSLTVTVPIAVGESDFENLNTEEFSSESDM
As to B1, the values for the Kd in assay [1], in assay [2] and in assay [3] were 0.25 µM, 1.5 µM and 5.8 µM, respectively.

B2: AnkB 828-896 (protein)
chain: TEKHKLNVPETMTEVLDVSDEEGDDTMTGDGGEYLRPEDLKELGDDSLPSSQFLDGMNYLRYSLEGGRS
As for B2, in assay [4], the Kd turned out to be 2.7 µM.

B3: AnkG_AI-b (aa 875–903) (domain or fragment)
chain: SDGEEGEDAITGDTDKYLGPQDLKELGDD
With B3, the Kd in assay [1] was 3.5 µM.

B4: AnkB_AI-c Met839Gln (domain or fragment)
chain: TEKHKLNVPETQTEVLDVSDEEGDD
The molecule B4 returned a Kd in assay [5] of 4.4 µM.

B5: AnkB_AI-c Asn834Lys (domain or fragment)
chain: TEKHKLKVPETMTEVLDVSDEEGDD
In the case of B5, in assay [5], the affinity, expressed as Kd, was 2.7 µM.

B6: AnkB_AI-c Leu843Gln (domain or fragment)
chain: TEKHKLNVPETMTEVQDVSDEEGDD
In assay [5], B6 displayed a Kd of 3.9 µM.

B7: AnkB_AI-b Tyr886Ala (domain or fragment)
chain: EDLKELGDDSLPSSQFLDGMNALRYSLEGGRS
As for B7, the Kd in assay [4] amounted to 16 µM.

B8: AnkB 874-896 (peptide)
chain: SLPSSQFLDGMNYLRYSLEGGRS
As for B8, the Kd in assay [4] amounted to 13 µM.

B9: AnkB AI-b fragment with residues 865 to 873 deleted (domain or fragment)
chain: SLPSSQFLDGMNYLRYSLEGGRS
For the molecule B9, the Kd in assay [6] was 17 µM.

B10: AnkG 861-903 (peptide)
chain: KASAPEKLSDGEYISDGEEGEDAITGDTDKYLGPQDLKELGDD
With B10, in assay [1], the Kd stood at 1.1 µM.

Values taken from article PMC5779224 (2017).
